Source: patent publication US12636342B2, “TARS derived from Akkermansia muciniphila or fragment thereof, and use thereof” (KOREA RESEARCH INSTITUTE OF BIOSCIENCE AND BIOTECHNOLOGY, priority 2020, dated 2026)
“Also recorded” adds a separate entry of the source.

Legend:
BMDMs [1] = test: Global gene expression profiling (RNA sequencing) of BMDMs; format: cell-based, mouse
Procedure: (A-E) Global gene expression analysis. Total mRNA from BMDMs treated with either AmTARS (0.5 μM) or Pam3 (10 ng ml-1) for 1 or 3 h was isolated and analyzed by RNA sequencing (A). Principle components analysis (PCA) of the gene expression profiles for each sample (B). Hierarchical clustering of gene expression profiles from each sample identified cluster 3 and 4 (C). Gene set enrichment analysis (GSEA) of clusters 3 and 4 with respect to terms related to inflammation (D). […] (F) Overview of the experimental procedures for zebrafish. The yolk of Tg (NFκB:EGFP) transgenic zebrafish larvae (3 dpf) was injected with PBS or AmTARS. Injected larvae were treated at 3 and 5 dpf with 0.5% DSS for 24 h, with a washing period with fresh water for 24 h in between. Sample collection and analysis of Tg (NFκB:EGFP)-based EGFP intensity were conducted at 6 dpf. (G) Representative confocal images showing NF-κB signaling in the mid-distal intestines of PBS- or AmTARS-injected larvae with or without DSS treatment. White dashed lines denote the boundaries of the intestines (based on merged DIC bright field images). (H) Bar graph comparing the fluorescence intensity of the mid-distal intestines of PBS- or AmTARS-injected larvae treated (or not) with DSS (n=32 per PBS group and n=35 per DSS group). (I) Schematic model of the role of AmTARS in maintaining immune homeostasis via TLR2-mediated anti-inflammatory signaling pathways. Data shown in (A-C) are representative and repeated twice. Data shown in (H) are representative of three independent experiments, each similar results (mean±SEM). P-values were calculated by unpaired and two-tailed Student's t-test.
We next performed global gene expression profiling of BMDMs treated with AmTARS or Pam3 for 1 or 3 h (FIG. 32A). […] Subsets of genes showing different expression patterns between AmTARS and Pam3 were classified into six clusters by hierarchical clustering analysis (FIGS. 33A and 33B). The gene expression pattern at 3 h was particularly different for clusters 3 and 4 (FIGS. 32C, 33A, and 33B). […]

BMDMs [2] = test: Immunoblotting of AmTARS/TLR2-induced signaling molecules in BMDMs; format: cell-based, mouse; settings: BMDMs stimulated for 30 min, 0.5 μM
Procedure: (A and B) Analysis of key molecules that inhibit the MAPK and PI3K/AKT signaling pathways. IL-10 produced by BMDMs pre-treated with inhibitors of ERK (PD98059, […]), p38 (SB203580, […]), MSK1/2 (SB747651A, 10 μM), CREB (666-15, 1 μM), PI3K (Wortmannin, 10 μM), and AKT1/2 (AKT1/2, 10 μM) for 1 h before treatment with either PBS or AmTARS for 24 h (n=6 per group) (A). Flow cytometry analysis of M2 macrophages in BMDMs pre-treated for 1 h with the indicated kinase inhibitors, before treatment with either PBS or AmTARS for 24 h (n=3 per group) (B). (C and D) Western blot analysis of MAPK signaling molecules in lysates of BMDMs (C) or THP1 cells (D) treated for different times with 0.5 μM AmTARS. (E) Western blot analysis of lysates of BMDMs pre-treated with α-IgG (Isotype, 1 μg ml-1) or α-TLR2 (1 μg ml-1) for 1 h before treatment with PBS, AmTARS (0.5 μM), or Pam3 (0.5 μM) for 30 min. (F and G) Western blot analysis of PI3K/AKT signaling molecules in lysates of BMDMs (F) or THP1 cells (G) treated with 0.5 μM AmTARS. (H) AmTARS activates both TLR2/1- and TLR2/6-mediated signaling. Activation of AKT, ERK, and CREB was measured by western blot analysis of lysates of THP1 cells pre-treated with α-IgG, α-TLR1, α-TLR2, or α-TLR6 (1 μg ml-1) for 1 h before treatment for 30 min with PBS or AmTARS (0.5 µM). Data shown in (A and B) are representative of three independent experiments, each with similar results (mean±SEM). P-values were calculated using an unpaired two-tailed Student's t-test. Data shown in (C-H) are representative and repeated at least three times.
Subsequently, we conducted immunoblotting assays to measure the time-dependent activation of AmTARS/TLR2-induced signaling molecules in both BMDMs and THP1 cells. AmTARS rapidly activated ERK, p38, and MSK1/2 within 15 min and, subsequently, phosphorylation of CREB at Ser133 (which is essential for IL-10 production) within 30 min in BMDMs (FIG. 31C) and THP1 cells (FIG. 31D). We then compared AmTARS-triggered TLR2 signaling with typical ligand-triggered signaling using Pam3CSK4 (the synthetic canonical TLR2/1 agonist, referred to hereafter as Pam3) in BMDMs stimulated for 30 min. […] By contrast, activation of NF-κB was greater in Pam3-treated BMDMs than in AmTARS-treated BMDMs (FIG. 31E).

[3] = system: mouse bone marrow-derived macrophages (BMDMs); test: ELISA of immune cytokine secretion in BMDMs under normal conditions; format: cell-based; settings: normal (non-inflammatory) conditions, 24 h
Procedure: Specifically, mouse bone marrow-derived macrophages (BMDMs) as mouse-derived immune cells were extracted from the mouse thighbone and shinbone, and then cultured in DMEM containing 10% fetal bovine serum (FBS) and antibiotics. Human macrophages (THP1) as human-derived immune cells were cultured in RPMI media containing 10% FBS and antibiotics.
The cultured cells were treated with AmTARS at 0.1 μM, 0.2 μM, and 0.5 μM for 24 h to obtain cell cultures. For cell removal, the media were centrifuged at 500×g for 10 min to obtain supernatants, which were then analyzed using an ELISA set (mouse interleukin (IL)-6, mouse IL-10, mouse tumor necrosis factor (TNF)-α, human IL-6, human IL-10, human TNF-α; BD Biosciences) to investigate the secretion of mouse- and human-derived immune cytokines. […]

[4] = system: mouse model of dextran sulfate sodium (DSS)-induced colitis; test: DSS-induced colitis (inflammatory bowel disease) mouse model, intraperitoneal administration; format: in vivo; settings: inflammatory bowel disease mouse model; for distribution of B cells in the colon: normal mice
Procedure: We evaluated the anti-inflammatory function of AmTARS in a mouse model of dextran sulfate sodium (DSS)-induced colitis. First, we assessed dose-dependent responses (i.e., changes in body weight and colon length) to intraperitoneal (i.p.) administration of AmTARS (0.05-0.4 mg/kg) once every other day for 10 days (FIG. 10A).
The disease activity score was calculated by adding up scores ranging from 0 to 4 points for each item of bloody stool, diarrhea, and weight loss, and the epithelial damage score was calculated by assigning 0 to 4 points according to the degree of colon tissue damage.
Next, to measure IgA, mouse feces were collected and diluted in PBS containing a protein inhibitor, and then a supernatant with impurities removed was obtained, and 100 μL was placed in each well of a 96-well plate to perform protein coating at 4° C. for 2 h. The plate was washed three times with a washing solution (50 mM Tris, 0.2% in PBS) and then incubated with 100 μL of blocking solution at room temperature for 1-2 h, followed by washing. HRP conjugated IgA antibody (1:30000) was added and then incubated at room temperature for 1 h, followed by washing. Thereafter, 100 μL of a substrate solution was added, followed by incubation for 30 min, and then 50 μL of a stop solution was added, followed by measurement at 405-450 nm by an ELISA reader. […]

Raw 264.7 cells = test: ELISA of immune cytokine secretion in LPS-treated Raw 264.7 cells; format: cell-based, mouse; settings: Raw 264.7, LPS, 24 h
Procedure: Next, to determine whether the regulation of immune cytokine secretion by AmTARS in an inflammatory environment was induced by the two functional sites, the mouse-derived immune cell Raw 264.7 cells were treated with LPS to induce an immune response by the method as in Example 3, and treated with AmTARS, ΔU1AmTARS, and ΔU2AmTARS for 24 h separately to obtain cell cultures. The obtained cell cultures were analyzed for Immune cytokine secretion by way of the same method as in Example 2.

[5] = Aminoacylation reaction (malachite green phosphate assay); format: biochemical; settings: L-threonine, ATP, 30 min, free Pi at 620 nm
Procedure: TARS is an […] involved in protein synthesis, and the domain and site involved in its function are well known. The constructed deletion mutants were confirmed to have deletions of parts irrelevant to the function, but the aminoacylation reaction experiment was conducted to determine whether the deletion mutants performed the intrinsic functions thereof appropriately.
Specifically, a 2× reaction solution (100 mM Tris-HCl (pH 7.5), 20 mM MgCl2, 200 mM NaCl, 200 mM KCl, 2 mM DTT, 500 μM ATP, and 5 mM L-threonine) was prepared, and 25 μL of a reaction solution, 20 μL of distilled water, and 5 μL of protein were added to make a final 50 μL volume, followed by incubation for 30 min. Thereafter, a reaction was conducted using a malachite green phosphate assay kit (Bioassay Systems) for 30 min, and the free monophosphate group (Pi) was measured at a wavelength of 620 nm.

Molecule	transcription factors associated with up-regulated genes (BMDMs [1]; GSEA (Enrichr))	gene set enrichment analysis, inflammatory response-related genes (BMDMs [1]; Pam3 compared with AmTARS)	activation of NF-κB, Pam3 versus AmTARS (BMDMs [2])	secretion/production of IL-10 [3]	amount of IgG increased by an inflammatory bowel disease [4]	distribution of B cells in the colon [4]	secretion of IL-6 (Raw 264.7 cells)	secretion of IL-10 (Raw 264.7 cells)	secretion of TNF-α (Raw 264.7 cells)	aminoacylation reaction / enzymatic activity [5]
Pam3CSK4	up-regulation of inflammation-related transcription factors such as NF-κB, RELA, and TFAP2A	significant induction of inflammatory response-related genes	greater	–	–	–	–	–	–	–
ΔU2AmTARS: AmTARS mutant with deletion of unique region U2 (residues 290-312); construct SEQ ID NO 8 (protein, misc_feature 1..1824 Akkermansia muciniphila TARS_del_Functional region 2) MSEHKERKTLEERQQMSDLERLRHSCAHVLATAICRLWPDAQLAGGPAVDNGFYYDVELDHRISTEDFERIEEEMKKVVKENQVFQKEVISRADAMKMAESGELGALGPRSEPSRFKIDLLNDIPEDEEISLYRNGDFTDLCAGPHVGRTGNCKAFKIMSVASAFYKGDKNRPMLQRIYGTCFPNRTQLDEHLERLEEARRRDHRKLGRELGLFCIDESVGQGLILWKPKGALIRRSLQDFITEELDKLGYSQVYTPNIGKLDLYRTSGHFPYYQESQYAPIPERDAMEYMLKPMNCPHHIKIYANDAHSYRDLPVRLAEFGTVYRWEQSGELGGMTRVRGFTQDDAHIFCTPDQLAGEIRQCLGIVKTIFGTLGMTDYRVRLSMRDPESDKYVGSPENWDKAEQALREAAEWLGADYSEEAGEAAFYGPKIDFIVRDAIGREWQLGTVQVDYNLPERFDLHYTGADNKPHRPVMVHRAPFGSMERFTGLLIEHFEGKFPTWLSPEQVRVLPISDKVTDVAAAHRTALAARGVRVTVDETPDKIGAKIRNARLDRVPYMLVLGQREAEDGTVSVRHRDKGDLGAMPFEQFADLVAREIAERHISPVI	–	–	–	abolished the IL-10 production	did not show an effect of reducing the amount of IgG	reduced the efficacy of increasing B cells in the colon	no effect	no effect	no effect	an aminoacylation reaction was shown; also recorded: Neither mutant protein was different from the wild-type
ΔU1AmTARS: AmTARS mutant with deletion of unique region U1 (residues 99-113); construct SEQ ID NO 7 (protein, misc_feature 1..1848 Akkermansia muciniphila TARS_del_Functional region 1) MSEHKERKTLEERQQMSDLERLRHSCAHVLATAICRLWPDAQLAGGPAVDNGFYYDVELDHRISTEDFERIEEEMKKVVKENQVFQKEVISRADAMKMSRFKIDLLNDIPEDEEISLYRNGDFTDLCAGPHVGRTGNCKAFKIMSVASAFYKGDKNRPMLQRIYGTCFPNRTQLDEHLERLEEARRRDHRKLGRELGLFCIDESVGQGLILWKPKGALIRRSLQDFITEELDKLGYSQVYTPNIGKLDLYRTSGHFPYYQESQYAPIPERDAMEKLSQEGASCAELFNGLATGTIEGYMLKPMNCPHHIKIYANDAHSYRDLPVRLAEFGTVYRWEQSGELGGMTRVRGFTQDDAHIFCTPDQLAGEIRQCLGIVKTIFGTLGMTDYRVRLSMRDPESDKYVGSPENWDKAEQALREAAEWLGADYSEEAGEAAFYGPKIDFIVRDAIGREWQLGTVQVDYNLPERFDLHYTGADNKPHRPVMVHRAPFGSMERFTGLLIEHFEGKFPTWLSPEQVRVLPISDKVTDVAAAHRTALAARGVRVTVDETPDKIGAKIRNARLDRVPYMLVLGQREAEDGTVSVRHRDKGDLGAMPFEQFADLVAREIAERHISPVI	–	–	–	abolished the IL-10 production	did not show an effect of reducing the amount of IgG	reduced the efficacy of increasing B cells in the colon	no effect	no effect	no effect	an aminoacylation reaction was shown; also recorded: Neither mutant protein was different from the wild-type
